The values below come from patent US20240270821A1, “GIP/GLP1/GCG TRI-RECEPTOR AGONISTS AND USES THEREOF” (priority 2023, published 2024).

What all share (experiment): cell-based or functional assay
One test deals with hGLP-1R (Homo sapiens, UniProt P43220).
The target of test [1] is T1, human GIP receptor (human) (UniProt P48546).
T1 sequence (looked up): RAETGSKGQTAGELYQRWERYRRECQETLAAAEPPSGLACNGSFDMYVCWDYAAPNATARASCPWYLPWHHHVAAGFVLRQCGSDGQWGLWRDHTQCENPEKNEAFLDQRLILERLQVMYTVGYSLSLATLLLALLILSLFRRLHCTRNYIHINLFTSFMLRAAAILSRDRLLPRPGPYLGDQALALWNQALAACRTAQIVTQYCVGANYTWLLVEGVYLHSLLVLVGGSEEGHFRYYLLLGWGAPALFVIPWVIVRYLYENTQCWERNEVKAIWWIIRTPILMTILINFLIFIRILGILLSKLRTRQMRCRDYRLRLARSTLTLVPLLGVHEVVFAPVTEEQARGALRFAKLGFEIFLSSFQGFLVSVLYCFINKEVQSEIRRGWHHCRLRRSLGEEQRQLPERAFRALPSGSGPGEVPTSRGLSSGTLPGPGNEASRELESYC

The target of test [2] is human glucagon receptor (human) (UniProt P47871).
human glucagon receptor (human), sequence (P47871 26-477): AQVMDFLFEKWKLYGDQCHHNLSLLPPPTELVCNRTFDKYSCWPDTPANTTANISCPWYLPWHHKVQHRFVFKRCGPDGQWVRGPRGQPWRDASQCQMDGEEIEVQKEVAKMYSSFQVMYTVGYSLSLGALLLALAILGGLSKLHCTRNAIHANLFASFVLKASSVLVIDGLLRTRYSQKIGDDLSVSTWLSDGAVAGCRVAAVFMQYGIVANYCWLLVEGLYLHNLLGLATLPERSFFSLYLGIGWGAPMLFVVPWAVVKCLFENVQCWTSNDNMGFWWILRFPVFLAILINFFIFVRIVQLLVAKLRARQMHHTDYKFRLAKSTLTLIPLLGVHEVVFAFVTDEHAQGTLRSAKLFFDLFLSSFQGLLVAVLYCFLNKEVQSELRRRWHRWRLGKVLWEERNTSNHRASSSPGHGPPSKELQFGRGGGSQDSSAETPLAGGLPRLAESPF

hGLP-1R, sequence (P43220 24-463): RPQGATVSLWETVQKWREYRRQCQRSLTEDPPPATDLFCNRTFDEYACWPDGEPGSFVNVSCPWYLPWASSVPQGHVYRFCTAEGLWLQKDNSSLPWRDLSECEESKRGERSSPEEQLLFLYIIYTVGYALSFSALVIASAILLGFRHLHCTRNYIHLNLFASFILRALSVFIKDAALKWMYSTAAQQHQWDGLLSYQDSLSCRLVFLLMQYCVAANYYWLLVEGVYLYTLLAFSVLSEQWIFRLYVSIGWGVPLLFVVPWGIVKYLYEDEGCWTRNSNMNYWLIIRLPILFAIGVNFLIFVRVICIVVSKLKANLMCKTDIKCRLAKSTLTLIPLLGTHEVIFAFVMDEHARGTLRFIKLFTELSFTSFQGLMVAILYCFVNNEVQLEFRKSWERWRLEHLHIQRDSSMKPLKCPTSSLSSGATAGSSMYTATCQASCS

B1: Example 1158 (peptide)
chain: YXQGTXTSDXXIXLDXKAQXEFIEXLVEGGPSSGAPPPEGE
modifications: not fully specified; non-natural residues, lysine acylation, C-terminal amide; synthetic construct; SITE 2: note = 2-Aminoisobutyric Acid; SITE 6: note = alpha-methyl-2-fluoro-L-phenylalanine; SITE 10: note = 3-(4-Pyridyl)-L-alanine; SITE 11: note = alpha-methyl-L-serine; SITE 13: note = alpha-methyl-leucine; SITE 16: note = L-ornithine; SITE 17: note = Lysine is chemically mo
Consider B1, for which the Relative cAMP EC50 in the test with hGLP-1R stood at 0.419 nM; in test [1] it was 0.0126 nM; in test [2], 2.19 nM. The cAMP Rel EC50 (in the presence of 1% HSA) with hGLP-1R came to 46.8 nM; in test [1] it was 1.42 nM; in test [2] it was 301 nM.

B2: Example 1170 (peptide)
chain: YXQGTXTSDXXIXLDXKAQXEFIEXLIEGGPSSGAPPPSGE
modifications: non-natural residues; acylated Lys; C-terminal amide; synthetic construct; SITE 2: note = 2-Aminoisobutyric Acid; SITE 6: note = alpha-methyl-L-phenylalanine; SITE 10: note = 3-(4-Pyridyl)-L-alanine; SITE 11: note = alpha-methyl-L-serine; SITE 13: note = alpha-methyl-leucine; SITE 16: note = L-ornithine; SITE 17: note = Lysine is chemically modified th
Consider B2, for which the Relative cAMP EC50 was 0.395 nM in the test with hGLP-1R, 0.00783 nM in test [1] and 2.43 nM in test [2]. In addition, the cAMP Rel EC50 (in the presence of 1% HSA) with hGLP-1R was 50.2 nM; in test [1], 0.663 nM; in test [2] it was 249 nM.

B3: Example 1171 (peptide)
chain: YXQGTXTSDXXIXLDXKAQXEFIEXLIEGGPSSGEPPPSGE
modifications: non-natural residues, (γGlu)2-C18 diacid lysine acylation, C-terminal amide; synthetic construct; SITE 2: note = 2-Aminoisobutyric Acid; SITE 6: note = alpha-methyl-L-phenylalanine; SITE 10: note = 3-(4-Pyridyl)-L-alanine; SITE 11: note = alpha-methyl-L-serine; SITE 13: note = alpha-methyl-leucine; SITE 16: note = L-ornithine; SITE 17: note = Lysine is chemically modified th
For B3, the figures for the Relative cAMP EC50 (in the test with hGLP-1R; in test [1]; in test [2]) were 0.529 nM, 0.00953 nM and 2.19 nM, respectively. Also, the cAMP Rel EC50 (in the presence of 1% HSA) with hGLP-1R turned out to be 52.9 nM; in test [1], 0.718 nM; in test [2], 233 nM.

B4: Example 1165 (peptide)
chain: YXQGTXTSDXXIXLDXKAQXEFIEXLIEGGPSSGEPPPSGE
modifications: non-natural residues (Aib, αMeF, 4Pal, Orn, Me4Pal); lipidated Lys; C-amide; synthetic construct; SITE 2: note = 2-Aminoisobutyric Acid; SITE 6: note = alpha-methyl-L-phenylalanine; SITE 10: note = 3-(4-Pyridyl)-L-alanine; SITE 11: note = alpha-methyl-L-serine; SITE 13: note = alpha-methyl-leucine; SITE 16: note = L-ornithine; SITE 17: note = Lysine is chemically modified th
Take B4: the figures for the Relative cAMP EC50 (in the test with hGLP-1R; in test [1]; in test [2]) were 0.632 nM, 0.0121 nM and 2.68 nM, respectively. For the same molecule, the cAMP Rel EC50 (in the presence of 1% HSA) in the test with hGLP-1R was 87.7 nM; in test [1], 1.36 nM; in test [2], 358 nM.

B5: Example 1176 (peptide)
chain: YXQGTXTSDXXIXLDXKAQXEFIEXLIEGGPSSGAPPPSGE
modifications: non-natural residues; lipidated Lys; C-terminal amide; synthetic construct; SITE 2: note = 2-Aminoisobutyric Acid; SITE 6: note = alpha-methyl-2-fluoro-L-phenylalanine; SITE 10: note = 3-(4-Pyridyl)-L-alanine; SITE 11: note = alpha-methyl-L-serine; SITE 13: note = alpha-methyl-leucine; SITE 16: note = L-ornithine; SITE 17: note = Lysine is chemically mo
As to B5, the cAMP Rel EC50 (in the presence of 1% HSA) with hGLP-1R was 43.8 nM; in test [1] it was 0.462 nM; in test [2], 229 nM.

B6: Example 1162 (peptide)
chain: YXQGTXTSDXXIXLDXKAQXEFIEXLVEGGPSSGAPPPSGSE
modifications: non-natural residues; Lys acylated C18 diacid via γGlu2; C-term amide; synthetic construct; SITE 2: note = 2-Aminoisobutyric Acid; SITE 6: note = alpha-methyl-2-fluoro-L-phenylalanine; SITE 10: note = 3-(4-Pyridyl)-L-alanine; SITE 11: note = alpha-methyl-L-serine; SITE 13: note = alpha-methyl-leucine; SITE 16: note = L-ornithine; SITE 17: note = Lysine is chemically mo
With B6, the Relative cAMP EC50 in the test with hGLP-1R was determined as 0.372 nM; in test [1], 0.00818 nM; in test [2] it was 2.55 nM. For the same molecule, the values for the cAMP Rel EC50 (in the presence of 1% HSA) (with hGLP-1R; in test [1]; in test [2]) were 34.5 nM, 0.656 nM and 199 nM, respectively.

B7: Example 1163 (peptide)
chain: YXQGTXTSDXXIXLDXKAQXEFIEXLVEGGPSSGEPPPSGSE
modifications: non-natural residues; lipidated Lys; C-terminal amide; synthetic construct; SITE 2: note = 2-Aminoisobutyric Acid; SITE 6: note = alpha-methyl-2-fluoro-L-phenylalanine; SITE 10: note = 3-(4-Pyridyl)-L-alanine; SITE 11: note = alpha-methyl-L-serine; SITE 13: note = alpha-methyl-leucine; SITE 16: note = L-ornithine; SITE 17: note = Lysine is chemically mo
For B7, the Relative cAMP EC50 worked out at 0.449 nM with hGLP-1R, 0.00951 nM in test [1] and 1.75 nM in test [2]. The results for the cAMP Rel EC50 (in the presence of 1% HSA) (in the test with hGLP-1R; in test [1]; in test [2]) were 35.4 nM, 0.721 nM and 163 nM, respectively.

B8: Example 1166 (peptide)
chain: YXQGTXTSDXXIXLDXKAQXEFIEXLIEGGPSSGAPPPSGSE
modifications: Aib, αMeF, 4Pal, αMeS, αMeL, Orn, Me4Pal, αMeY, acyl, amide; synthetic construct; SITE 2: note = 2-Aminoisobutyric Acid; SITE 6: note = alpha-methyl-L-phenylalanine; SITE 10: note = 3-(4-Pyridyl)-L-alanine; SITE 11: note = alpha-methyl-L-serine; SITE 13: note = alpha-methyl-leucine; SITE 16: note = L-ornithine; SITE 17: note = Lysine is chemically modified th
With B8, the Relative cAMP EC50 with hGLP-1R turned out to be 0.478 nM; in test [1], 0.00999 nM; in test [2] it was 2.94 nM. Further, the values for the cAMP Rel EC50 (in the presence of 1% HSA) (with hGLP-1R; in test [1]; in test [2]) were 65.6 nM, 1.1 nM and 427 nM, respectively.

B9: Example 1173 (peptide)
chain: YXQGTXTSDXXIXLDXKAQXEFIEXLIEGGPSSGEPPPSGSE
modifications: (γGlu)2-C18 diacid on Lys; non-natural residues; amide; synthetic construct; SITE 2: note = 2-Aminoisobutyric Acid; SITE 6: note = alpha-methyl-L-phenylalanine; SITE 10: note = …; SITE 11: note = alpha-methyl-L-serine; SITE 13: note = alpha-methyl-leucine; SITE 16: note = L-ornithine; SITE 17: note = Lysine is chemically modified th
Turning to B9, the values for the Relative cAMP EC50 (in the test with hGLP-1R; in test [1]; in test [2]) were 0.604 nM, 0.00943 nM and 2.31 nM, respectively. Also, the cAMP Rel EC50 (in the presence of 1% HSA) with hGLP-1R worked out at 59.1 nM; in test [1] it was 0.764 nM; in test [2] it was 254 nM.

B10: Example 1167 (peptide)
chain: YXQGTXTSDXXIXLDXKAQXEFIEXLIEGGPSSGEPPPSGSE
modifications: non-natural residues; Lys acylated C18 diacid; C-terminal amide; synthetic construct; SITE 2: note = 2-Aminoisobutyric Acid; SITE 6: note = alpha-methyl-L-phenylalanine; SITE 10: note = 3-(4-Pyridyl)-L-alanine; SITE 11: note = alpha-methyl-L-serine; SITE 13: note = alpha-methyl-leucine; SITE 16: note = L-ornithine; SITE 17: note = Lysine is chemically modified th
Consider B10, for which the Relative cAMP EC50 with hGLP-1R worked out at 0.636 nM; in test [1], 0.011 nM; in test [2] it was 2.16 nM. Besides, the cAMP Rel EC50 (in the presence of 1% HSA) was determined as 89.2 nM in the test with hGLP-1R, 1.22 nM in test [1] and 274 nM in test [2].

B11: Example 1172 (peptide)
chain: YXQGTXTSDXXIXLDXKAQXEFIEXLIEGGPSSGAPPPSGSE
modifications: Aib, αMe residues, 4Pal, Orn, Me4Pal; acylated K; amide; synthetic construct; SITE 2: note = 2-Aminoisobutyric Acid; SITE 6: note = alpha-methyl-L-phenylalanine; SITE 10: note = 3-(4-Pyridyl)-L-alanine; SITE 11: note = alpha-methyl-L-serine; SITE 13: note = alpha-methyl-leucine; SITE 16: note = L-ornithine; SITE 17: note = Lysine is chemically modified th
B11: the Relative cAMP EC50 with hGLP-1R is 0.44 nM; in test [1], 0.00886 nM; in test [2] it was 2.52 nM. For the same molecule, the values for the cAMP Rel EC50 (in the presence of 1% HSA) (with hGLP-1R; in test [1]; in test [2]) were 45.5 nM, 0.7 nM and 303 nM, respectively.
